# Measured values as given in paper PMC4810480.
# Target: human CD26 (residues 39 to 766) (human) (UniProt P27487)
# Test: SPR
# UniProt P27487, sequence (P27487 39-766): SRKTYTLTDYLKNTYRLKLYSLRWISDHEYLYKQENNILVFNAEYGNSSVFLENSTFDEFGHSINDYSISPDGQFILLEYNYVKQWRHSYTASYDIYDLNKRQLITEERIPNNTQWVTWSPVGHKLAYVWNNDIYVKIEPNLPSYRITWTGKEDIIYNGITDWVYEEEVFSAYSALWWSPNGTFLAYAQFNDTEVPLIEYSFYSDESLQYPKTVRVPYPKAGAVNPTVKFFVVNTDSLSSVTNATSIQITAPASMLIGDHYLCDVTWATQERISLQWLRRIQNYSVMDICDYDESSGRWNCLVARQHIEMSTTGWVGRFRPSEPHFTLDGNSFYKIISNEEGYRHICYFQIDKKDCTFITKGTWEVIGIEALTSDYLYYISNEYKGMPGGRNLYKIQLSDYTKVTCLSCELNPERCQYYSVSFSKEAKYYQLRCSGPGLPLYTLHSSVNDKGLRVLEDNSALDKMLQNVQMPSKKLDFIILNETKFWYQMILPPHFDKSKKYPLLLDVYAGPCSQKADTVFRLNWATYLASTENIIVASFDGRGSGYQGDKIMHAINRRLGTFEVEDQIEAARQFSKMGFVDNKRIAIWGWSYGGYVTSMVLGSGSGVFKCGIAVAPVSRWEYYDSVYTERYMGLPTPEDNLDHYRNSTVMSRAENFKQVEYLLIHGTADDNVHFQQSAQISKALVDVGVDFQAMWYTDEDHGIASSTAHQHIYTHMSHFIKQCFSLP
substance,measurement,value
"MERS-CoV spike receptor-binding domain (RBD), wild type (from UniProt K9N5Q8 367-606) (domain or fragment)",Kd,64.5 nM
same,koff,0.000936 s⁻¹
same,kon,14500 M⁻¹ s⁻¹
